# Measured values: IntAct's records for PubMed 22990239
# B1: Heat shock 70 kDa protein 4 (Homo sapiens), P34932 (parent)
# chain: MSVVGIDLGFQSCYVAVARAGGIETIANEYSDRCTPACISFGPKNRSIGAAAKSQVISNAKNTVQGFKRFHGRAFSDPFVEAEKSNLAYDIVQLPTGLTGIKVTYMEEERNFTTEQVTAMLLSKLKETAESVLKKPVVDCVVSVPCFYTDAERRSVMDATQIAGLNCLRLMNETTAVALAYGIYKQDLPALEEKPRNVVFVDMGHSAYQVSVCAFNRGKLKVLATAFDTTLGGRKFDEVLVNHFCEEFGKKYKLDIKSKIRALLRLSQECEKLKKLMSANASDLPLSIECFMNDVDVSGTMNRGKFLEMCNDLLARVEPPLRSVLEQTKLKKEDIYAVEIVGGATRIPAVKEKISKFFGKELSTTLNADEAVTRGCALQCAILSPAFKVREFSITDVVPYPISLRWNSPAEEGSSDCEVFSKNHAAPFSKVLTFYRKEPFTLEAYYSSPQDLPYPDPAIAQFSVQKVTPQSDGSSSKVKVKVRVNVHGIFSVSSASLVEVHKSEENEEPMETDQNAKEEEKMQVDQEEPHVEEQQQQTPAENKAESEEMETSQAGSKDKKMDQPPQAKKAKVKTSTVDLPIENQLLWQIDREMLNLYIENEGKMIMQDKLEKERNDAKNAVEEYVYEMRDKLSGEYEKFVSEDDRNSFTLKLEDTENWLYEDGEDQPKQVYVDKLAELKNLGQPIKIRFQESEERPKLFEELGKQIQQYMKIISSFKNKEDQYDHLDAADMTKVEKSTNEAMEWMNNKLNLQNKQSLTMDPVVKSKEIEAKIKELTSTCSPIISKPKPKVEPPKEEQKNAEQNGPVDGQGDNPGPQAAEQGTDTAVPSDSDKKLPEMDID
# Variants of: B1
# Conditions: with hsp7c_human HSPA8, P11142
# hsp7c_human HSPA8, P11142, sequence (P11142 whole entry, looked up): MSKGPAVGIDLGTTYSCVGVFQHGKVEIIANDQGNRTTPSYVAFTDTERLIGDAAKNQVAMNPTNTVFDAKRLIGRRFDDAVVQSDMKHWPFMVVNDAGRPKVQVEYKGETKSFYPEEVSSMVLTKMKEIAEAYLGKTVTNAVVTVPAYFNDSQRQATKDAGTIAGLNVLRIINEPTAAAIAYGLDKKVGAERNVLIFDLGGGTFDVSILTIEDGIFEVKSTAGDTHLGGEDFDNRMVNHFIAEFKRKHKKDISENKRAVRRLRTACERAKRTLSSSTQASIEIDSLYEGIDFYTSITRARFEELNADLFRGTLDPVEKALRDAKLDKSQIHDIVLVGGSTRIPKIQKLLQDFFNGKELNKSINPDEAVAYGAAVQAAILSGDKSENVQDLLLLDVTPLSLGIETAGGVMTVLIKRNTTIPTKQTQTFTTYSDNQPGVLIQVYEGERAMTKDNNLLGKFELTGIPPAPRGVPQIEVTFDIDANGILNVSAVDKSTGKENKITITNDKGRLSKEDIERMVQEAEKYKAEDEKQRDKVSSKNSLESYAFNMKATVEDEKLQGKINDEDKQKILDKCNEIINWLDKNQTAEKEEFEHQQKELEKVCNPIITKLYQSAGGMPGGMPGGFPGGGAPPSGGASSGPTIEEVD
row,Variant,effect of a mutation on the interaction
1,E622A,decreasing interaction
2,N619Y,decreasing interaction
